In patent US6867177B2, “CD39/ECTO-adpase as a treatment for thrombotic and ischemic disorders” (The Trustees of Columbia University in the City of New York, priority 1999, dated 2005):

Tests used:
[1] = tested on: murine platelets; assay: Murine platelet aggregation (aggregometry of platelet-rich plasma from treated mice); format: cell-based; conditions: for platelet aggregation response to ADP: ADP 2.5 or 10 μM, CD39 4 mg/kg, aspirin 5 mg/kg; for platelet aggregation response to ADP / platelet aggregation response to collagen / platelet aggregation response to sodium arachidonate: agent given to mice 45 minutes prior to harvest of blood; for platelet aggregation response to collagen: collagen 2.5 or 10 μg/mL; for platelet aggregation response to sodium arachidonate: sodium arachidonate 0.1 mM
Description: Preparation of Murine Platelets: Mice (untreated, treated with 4 mg/kg CD39, or treated with […]) were anesthetized and heparinized (10 U/g), prior to blood collection via cardiac puncture performed with 22 gauge, 1 cc syringe. Immediately following collection, 80 μl 3.8% trisodium citrate was added to each mL of blood. Blood from 6-8 mice was pooled in a 15 mL tube centrifuge tube (Flacon, polypropylene). Platelet-rich plasma (PRP) was prepared with an initial whole blood centrifugation (900 g, 3 min, 20° C., no brake), and a second centrifugation of PRP (100 g, 2 min) to eliminate residual erythrocytes and leukocytes. The stock suspension of PRP was maintained at room temperature. PRP platelet counts were 400-700×10^3 platelets per μl.
Platelet aggregation studies: PRP (200 μl) was pre-incubated (3 min, 37° C.) with 100 μl Tris-buffered saline (TSG) buffer (15 mM Tris, 134 mM NaCl, 5 mM glucose, pH 7.4) in an aggregometer cuvette (Lumiaggregometer; Chrono-Log, Havertown, Pa.). After the 3 min, 37° C. preincubation ≈5.0 C 10^5 platelets, platelet agonist (ADP, collagen, sodium arachidonate) were added at the concentration indicated. Total volumes were adjusted to 300 μl with TSG buffer, and the aggregation response recorded for 2-4 min. Agonists were prepared as 100× solution: ADP was in TSG buffer, collagen in acidified isotonic glucose ([…], Munchen, Germany), and sodium arachidonate in 0.85% saline. All aggregation studies were completed within two hours of blood collection.
Quantitation of Platelet Aggregation: Area under the curve was estimated by multiplying the height of the curve with its width at half height. The former was measured form pre-simulation baseline to the middle of the highest point of the curve. However, when curves were less than ⅓ of maximal height, the lowest point of the shape change portion of the curve was considered baseline. […] These criteria underestimate large aggregation responses, and overestimate small ones. Thus we knowingly underestimated the effects of compounds with great inhibitory capacity. This approach was preferred over one that could have overemphasized inhibitory potential.
Murine platelet aggregation: C57/6J BL mice (6-8 weeks) were obtained from Jackson Laboratories, Bar Harbor, Me.). Untreated mice, and mice treated with 4 mg/kg CD39, with 5 mg/kg aspirin or phosphate buffered saline, were anesthetized and heparinized (10 U/g), prior to blood collection via cardiac puncture; 80 μL 3.8% trisodium citrate was added to each mL of blood. Samples from 6-8 mice were pooled and platelet-rich plasma (PRP) prepared by centrifugation (900 g, 3 min, 20° C., followed by 100 g, 2 min to eliminate residual erythrocytes and leukocytes). PRP contained 400-700×10^3 platelets per μL. PRP (200 μL) was preincubated (3 min, 37° C.) with 100 μL Tris-buffered saline (TSG) buffer (15 mM Tris, 134 mM NaCl, 5 mM glucose, pH 7.4)^11,23,24 in an aggregometer cuvette (Lumiaggregometer; Chrono-Log, Havertown, Pa.). Platelet agonists (ADP, collagen (Hormon Chemie, Munchen, Germany), or sodium arachidonate (Nu-Check Prep, Elysian, Minn.)) were added at the final concentrations indicated. Aggregation responses were recorded for 2-4 min, and expressed as area under the curve (height times width at ½ height). All experiments were completed within two hours of blood collection.

[2] = Measurement of bleeding time (tail vein incision); format: in vivo; conditions: mice not subjected to other manipulation; intravenous
Description: Measurement of Bleeding Time: Bleeding times were measured in mice which were not subjected to experimental manipulation other than by receiving either vehicle (saline) or CD39 prepared in physiological saline and administered intravenously 5 minutes prior to the experiment. Following anesthesia, a standardized incision was made on the central dorsal tail vein, and the tail was then immersed in physiological saline at 37.5° C.

[3] = tested on: stroke (focal cerebral ischemia and reperfusion); conditions: for postischemic cerebral perfusion (cerebral blood flow): laser Doppler, ischemic vs nonischemic hemisphere; for cerebral infarct volume: preoperatively administered, CD39 4 and 8 mg/kg, aspirin 5 mg/kg, 24 hours
[4] = tested on: lung ischemia and reperfusion; assay: Mouse model of lung ischemia and reperfusion; format: in vivo, mice; conditions: CD39 8 mg/kg; 1 hour ischemia, 2 hour reperfusion, observation 1 hour; four experiments
Description: In these studies, murine ischemic reperfusion model was used. In the mouse model of lung ischemia, mice were initially anesthetized intraperitoneal with 0.1 mg/mouse weight (g) of ketamine and 0.01 mg/mouse weight (g) of xylazine, following by intraperitoneal continuous infusion of one third of the initial dose per hour using a syringe pump (model 100 series, KD Scientific Inc. Mass.). After ensuring appropriate depth of anesthesia, mice were intubated via tracheostomy and placed on a Harvard ventilator (tidal volume=0.75 mL, respiratory rate=120/min) with room air, followed by bilateral thoracotomy. The left hilum was cross-clamped for a period of 1 hour after which the cross-clamp was released. Reperfusion proceeded for 2 hours.
For all experiments, the surgical operator was blinded by a colleague in the laboratory to the specific substance being injected (vehicle or CD39, 8 mg/kg). Experimental procedures were as follows. […]

[5] = tested on: stroke in CD39-/- mice
[6] = cited from earlier work
[7] = tested on: platelets; conditions: cited from earlier work
[8] = peptide affinity purified from CHO conditioned medium; cited from earlier work
[9] = treatment either prior to, or up to 3 hours following stroke
[10] = control, CD39-/- and reconstituted CD39-/- mice

CC(=O)Oc1ccccc1C(=O)O [aspirin, reference compound]
platelet aggregation response to ADP [1]: strongly aggregated
platelet reactivity to collagen at any collagen dose ([1]; any collagen dose): little effect
platelet aggregation response to collagen [1]: strongly aggregated
platelet aggregation response to sodium arachidonate [1]: abrogated
bleeding time [2]: markedly increased
postischemic cerebral perfusion (cerebral blood flow) [3]: did not improve
cerebral infarct volume [3]: tendency to decrease cerebral infarct volume, the effect was not statistically significant

B1: CD39: recombinant soluble CD39 (SEQ ID NO:2): four apyrase domains, lacking the two transmembrane regions, IL-2 leader, expressed in CHO cells (protein, listed as Homo sapiens)
chain: TQNKALPENVKYGIVLDAGSSHTSLYIYKWPAEKENDTGVVHQVEECRVKGPGISKFVQKVNEIGIYLTDCMERAREVIPRSQHQETPVYLGATAGMRLLRMESEELADRVLDVVERSLSNYPFDFQGARIITGQEEGAYGWITINYLLGKFSQKTRWFSIVPYETNNQETFGALDLGGASTQVTFVPQNQTIESPDNALQFRLYGKDYNVYTHSFLCYGKDQALWQKLAKDIQVASNEILRDPCFHPGYKKVVNVSDLYKTPCTKRFEMTLPFQQFEIQGIGNYQQCHQSILELFNTSYCPYSQCAFNGIFLPPLQGDFGAFSAFYFVMKFLNLTSEKVSQEKVTEMMKKFCAQPWEEIKTSYAGVKEKYLSEYCFSGTYILSLLLQGYHFTADSWEHIHFIGKIQGSDAGWTLGYMLNLTNMIPAEQPLSTPLSHST
platelet aggregation response to ADP [1]: completely abrogated
platelet aggregation response to collagen [1]: attenuated
platelet reactivity to higher doses of collagen ([1]; higher doses of collagen): do respond
platelet reactivity to low-dose collagen ([1]; low-dose collagen): inhibited
platelet aggregation response to sodium arachidonate [1]: did not inhibit the initial activation phase of platelet aggregation to arachidonate, but rapidly disaggregated platelets during the initial recruitment phase
bleeding time [2]: dose-dependent increase
mouse survival following functional removal of the contralateral (nonischemic) lung [4]: 100%
cerebroprotection ([3]; administered three hours after onset of stroke (8 mg/kg)): significant cerebroprotection
platelet accumulation in the ipsilateral cerebral hemisphere ([3]; intravenously injected, 111In-labeled platelets, 24 hours of reperfusion): inhibited
fibrin accumulation in the ipsilateral cerebral hemisphere ([3]; intravenously injected, fibrin immunoblot): inhibited
postischemic cerebral perfusion (cerebral blood flow) [3]: improved
intracerebral hemorrhage ([3]; mouse, in vivo): without an increase
cerebral infarct volume [3]: dose-dependent diminution
mortality [3, 9]: reduced
neurological deficit [3, 9]: reduced
cerebral infarct volume ([5]; CD39-/- mice reconstituted with CD39, 24 hours): markedly diminished
intracerebral hemorrhage [5, 10]: did not differ between groups
neurological deficit scores [5, 10]: did not differ between groups
overall mortality [5, 10]: did not differ between groups
elimination half-time in mice [6]: 2 days
ADP-induced platelet aggregation in vitro [7]: blocked
apyrase activity [8]: potent apyrase activity
